The chains are these.
T1: TNFR1 (Homo sapiens, UniProt P19438)
T1 chain: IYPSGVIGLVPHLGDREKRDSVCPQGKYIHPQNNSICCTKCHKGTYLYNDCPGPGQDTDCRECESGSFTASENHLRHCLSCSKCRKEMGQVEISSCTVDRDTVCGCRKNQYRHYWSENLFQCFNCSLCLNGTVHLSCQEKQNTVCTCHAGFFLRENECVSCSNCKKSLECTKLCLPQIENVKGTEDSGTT

B1: L12Y (designed binder)
chain: MTLQELLREEAYRRAEAEAFRYALELLAEKFPEQKEYLLDLAEEIESQIRSLSGVDVEDVRKFLDKEWAWVKELLAEHPAELAEVEAARAARLAELRAEVEAKVAA
B2: L64N (designed binder)
chain: MTLQELLREEALRRAEAEAFRYALELLAEKFPEQKEYLLDLAEEIESQIRSLSGVDVEDVRKFNDKEWAWVKELLAEHPAELAEVEAARAARLAELRAEVEAKVAA
B3: Q48N (designed binder)
chain: MTLQELLREEALRRAEAEAFRYALELLAEKFPEQKEYLLDLAEEIESNIRSLSGVDVEDVRKFLDKEWAWVKELLAEHPAELAEVEAARAARLAELRAEVEAKVAA
B4: L52F (designed binder)
chain: MTLQELLREEALRRAEAEAFRYALELLAEKFPEQKEYLLDLAEEIESQIRSFSGVDVEDVRKFLDKEWAWVKELLAEHPAELAEVEAARAARLAELRAEVEAKVAA
B5: L52M (designed binder)
chain: MTLQELLREEALRRAEAEAFRYALELLAEKFPEQKEYLLDLAEEIESQIRSMSGVDVEDVRKFLDKEWAWVKELLAEHPAELAEVEAARAARLAELRAEVEAKVAA
B6: L27K (designed binder)
chain: MTLQELLREEALRRAEAEAFRYALELKAEKFPEQKEYLLDLAEEIESQIRSLSGVDVEDVRKFLDKEWAWVKELLAEHPAELAEVEAARAARLAELRAEVEAKVAA
B7: D59Q (designed binder)
chain: MTLQELLREEALRRAEAEAFRYALELLAEKFPEQKEYLLDLAEEIESQIRSLSGVDVEQVRKFLDKEWAWVKELLAEHPAELAEVEAARAARLAELRAEVEAKVAA
B8: R8I (designed binder)
chain: MTLQELLIEEALRRAEAEAFRYALELLAEKFPEQKEYLLDLAEEIESQIRSLSGVDVEDVRKFLDKEWAWVKELLAEHPAELAEVEAARAARLAELRAEVEAKVAA
B9: L7T (designed binder)
chain: MTLQELTREEALRRAEAEAFRYALELLAEKFPEQKEYLLDLAEEIESQIRSLSGVDVEDVRKFLDKEWAWVKELLAEHPAELAEVEAARAARLAELRAEVEAKVAA
B10: A87N (designed binder)
chain: MTLQELLREEALRRAEAEAFRYALELLAEKFPEQKEYLLDLAEEIESQIRSLSGVDVEDVRKFLDKEWAWVKELLAEHPAELAEVENARAARLAELRAEVEAKVAA
B11: K35E (designed binder)
chain: MTLQELLREEALRRAEAEAFRYALELLAEKFPEQEEYLLDLAEEIESQIRSLSGVDVEDVRKFLDKEWAWVKELLAEHPAELAEVEAARAARLAELRAEVEAKVAA
B12: V85S (designed binder)
chain: MTLQELLREEALRRAEAEAFRYALELLAEKFPEQKEYLLDLAEEIESQIRSLSGVDVEDVRKFLDKEWAWVKELLAEHPAELAESEAARAARLAELRAEVEAKVAA
B13: A102E (designed binder)
chain: MTLQELLREEALRRAEAEAFRYALELLAEKFPEQKEYLLDLAEEIESQIRSLSGVDVEDVRKFLDKEWAWVKELLAEHPAELAEVEAARAARLAELRAEVEEKVAA
B14: A94P (designed binder)
chain: MTLQELLREEALRRAEAEAFRYALELLAEKFPEQKEYLLDLAEEIESQIRSLSGVDVEDVRKFLDKEWAWVKELLAEHPAELAEVEAARAARLPELRAEVEAKVAA
B15: V60M (designed binder)
chain: MTLQELLREEALRRAEAEAFRYALELLAEKFPEQKEYLLDLAEEIESQIRSLSGVDVEDMRKFLDKEWAWVKELLAEHPAELAEVEAARAARLAELRAEVEAKVAA
B16: A83I (designed binder)
chain: MTLQELLREEALRRAEAEAFRYALELLAEKFPEQKEYLLDLAEEIESQIRSLSGVDVEDVRKFLDKEWAWVKELLAEHPAELIEVEAARAARLAELRAEVEAKVAA
B17: E86T (designed binder)
chain: MTLQELLREEALRRAEAEAFRYALELLAEKFPEQKEYLLDLAEEIESQIRSLSGVDVEDVRKFLDKEWAWVKELLAEHPAELAEVTAARAARLAELRAEVEAKVAA
B18: K103Y (designed binder)
chain: MTLQELLREEALRRAEAEAFRYALELLAEKFPEQKEYLLDLAEEIESQIRSLSGVDVEDVRKFLDKEWAWVKELLAEHPAELAEVEAARAARLAELRAEVEAYVAA
B19: A88V (designed binder)
chain: MTLQELLREEALRRAEAEAFRYALELLAEKFPEQKEYLLDLAEEIESQIRSLSGVDVEDVRKFLDKEWAWVKELLAEHPAELAEVEAVRAARLAELRAEVEAKVAA
B20: A91H (designed binder)
chain: MTLQELLREEALRRAEAEAFRYALELLAEKFPEQKEYLLDLAEEIESQIRSLSGVDVEDVRKFLDKEWAWVKELLAEHPAELAEVEAARAHRLAELRAEVEAKVAA
B21: M1W (designed binder)
chain: WTLQELLREEALRRAEAEAFRYALELLAEKFPEQKEYLLDLAEEIESQIRSLSGVDVEDVRKFLDKEWAWVKELLAEHPAELAEVEAARAARLAELRAEVEAKVAA
B22: L93G (designed binder)
chain: MTLQELLREEALRRAEAEAFRYALELLAEKFPEQKEYLLDLAEEIESQIRSLSGVDVEDVRKFLDKEWAWVKELLAEHPAELAEVEAARAARGAELRAEVEAKVAA
B23: E86K (designed binder)
chain: MTLQELLREEALRRAEAEAFRYALELLAEKFPEQKEYLLDLAEEIESQIRSLSGVDVEDVRKFLDKEWAWVKELLAEHPAELAEVKAARAARLAELRAEVEAKVAA
B24: L96W (designed binder)
chain: MTLQELLREEALRRAEAEAFRYALELLAEKFPEQKEYLLDLAEEIESQIRSLSGVDVEDVRKFLDKEWAWVKELLAEHPAELAEVEAARAARLAEWRAEVEAKVAA
B25: A90C (designed binder)
chain: MTLQELLREEALRRAEAEAFRYALELLAEKFPEQKEYLLDLAEEIESQIRSLSGVDVEDVRKFLDKEWAWVKELLAEHPAELAEVEAARCARLAELRAEVEAKVAA
B26: A91F (designed binder)
chain: MTLQELLREEALRRAEAEAFRYALELLAEKFPEQKEYLLDLAEEIESQIRSLSGVDVEDVRKFLDKEWAWVKELLAEHPAELAEVEAARAFRLAELRAEVEAKVAA
B27: E29C (designed binder)
chain: MTLQELLREEALRRAEAEAFRYALELLACKFPEQKEYLLDLAEEIESQIRSLSGVDVEDVRKFLDKEWAWVKELLAEHPAELAEVEAARAARLAELRAEVEAKVAA
B28: H78L (designed binder)
chain: MTLQELLREEALRRAEAEAFRYALELLAEKFPEQKEYLLDLAEEIESQIRSLSGVDVEDVRKFLDKEWAWVKELLAELPAELAEVEAARAARLAELRAEVEAKVAA
B29: F63I (designed binder)
chain: MTLQELLREEALRRAEAEAFRYALELLAEKFPEQKEYLLDLAEEIESQIRSLSGVDVEDVRKILDKEWAWVKELLAEHPAELAEVEAARAARLAELRAEVEAKVAA
B30: L3W (designed binder)
chain: MTWQELLREEALRRAEAEAFRYALELLAEKFPEQKEYLLDLAEEIESQIRSLSGVDVEDVRKFLDKEWAWVKELLAEHPAELAEVEAARAARLAELRAEVEAKVAA
B31: K62G (designed binder)
chain: MTLQELLREEALRRAEAEAFRYALELLAEKFPEQKEYLLDLAEEIESQIRSLSGVDVEDVRGFLDKEWAWVKELLAEHPAELAEVEAARAARLAELRAEVEAKVAA
B32: S47K (designed binder)
chain: MTLQELLREEALRRAEAEAFRYALELLAEKFPEQKEYLLDLAEEIEKQIRSLSGVDVEDVRKFLDKEWAWVKELLAEHPAELAEVEAARAARLAELRAEVEAKVAA
B33: L12W (designed binder)
chain: MTLQELLREEAWRRAEAEAFRYALELLAEKFPEQKEYLLDLAEEIESQIRSLSGVDVEDVRKFLDKEWAWVKELLAEHPAELAEVEAARAARLAELRAEVEAKVAA
B34: A76D (designed binder)
chain: MTLQELLREEALRRAEAEAFRYALELLAEKFPEQKEYLLDLAEEIESQIRSLSGVDVEDVRKFLDKEWAWVKELLDEHPAELAEVEAARAARLAELRAEVEAKVAA

This is an account of results in publication PMC12416549 (2024).

In this assay the target is T1, TNFR1. Briefly: yeast display SC50.
Consider B1, for which the “apparent Kd (screen)” value is 0.539 nM.
Then B2, with 0.593 nM.
In the case of B3, the “apparent Kd (screen)” value was 0.49 nM.
As for B4, the “apparent Kd (screen)” value was determined as 1.69 nM.
For the molecule B5, the “apparent Kd (screen)” value was determined as 15.2 nM.
The figure for B6 is 0.49 nM.
Consider B7, for which the “apparent Kd (screen)” value came out at 0.869 nM.
The figure for B8 is 0.593 nM; for B9 it is 18.3 nM; for B10 it is 0.593 nM.
The figure for B11 is 1.16 nM.
Then B12, with 0.869 nM; and B13, with 0.49 nM.
Consider B14, for which the “apparent Kd (screen)” value was determined as 0.956 nM.
As for B15, the “apparent Kd (screen)” value turned out to be 0.49 nM.
B16: the “apparent Kd (screen)” value was determined as 0.869 nM.
The figure for B17 is 0.718 nM; for B18 it is 0.869 nM.
Then B19, with 0.956 nM; and B20, with 0.593 nM.
Then B21, with 0.653 nM; and B22, with 1.4 nM; and B23, with 1.27 nM.
Take B24: the “apparent Kd (screen)” value worked out at 0.79 nM.
Then B25, with 0.718 nM.
B26: the “apparent Kd (screen)” value came out at 0.49 nM.
Then B27, with 0.539 nM.
Regarding B28, the “apparent Kd (screen)” value amounted to 1.86 nM.
Then B29, with 1.54 nM; and B30, with 2.25 nM.
The figure for B31 is 0.869 nM; for B32 it is 0.653 nM.
As to B33, the “apparent Kd (screen)” value worked out at 0.593 nM.
The figure for B34 is 0.446 nM.
